Results: publication PMC12618784

How the values were obtained:
Test in all cases: TurboID biotin proximity labelling with mass spectrometry
Settings in all cases: 3rd instar larval muscle tissue (mef2-Gal4); parent: 1
SesB = target: SesB
Troponin-C = target: Troponin-C
ATPsynD, SynO = target: ATPsynD, SynO
Prohibitin2 = target: Prohibitin2

ratio to parent (SesB): 0.29
ratio to parent (Troponin-C): 0.07
ratio to parent (ATPsynD, SynO): 0.3
ratio to parent (Prohibitin2): 0.18
Substance: Dmel\Tmem43wt::TurboID (from UniProt Q9VSB9) p.S333L
